Drawing on the RNAGym collection of RNA variant scans (doi:10.7554/elife.80360), this text covers self-cleavage for 32 variants.

To fix the notation:
B1: HDV Ribozyme (parent)
chain: GGCCGGCAUGGUCCCAGCCUCCUCGCUGGCGCCGGCUGGGCAACAUUCCGAGGGGACCGUCCCCUCGGUAAUGGCGAAUGGGACCCA

Variants of B1 are the subject of this series. As to the kind of experiment: self-cleavage, relative activity (ratio to wild type); higher = more cleavage; co-transcriptional.
As to GGCCGGCCUGGUCCCAGCCUCCUCGCUGGCGCCGGCUGGGCAACAUUCCGAGGGGACCGUCCCCUCCGUAAUGGCGAAUGGGACCCA, the self-cleavage was found to be 0.623.
GGCCAGCAUGGUCCCAGCCUCCUCGCUGGCGCCGGCUGGGCAACAUUCCGAGGGGACCGUCCCCUUGGUAAUGGCGAAUGGGACCCA: the self-cleavage turned out to be 0.305.
In the case of GGCCGGCAUGGUCCCAGCCUCCUCGCUGGUGCCGGCAGGGCAACAUUCCGAGGGGACCGUCCCCUCGGUAAUGGCGAAUGGGACCCA, the self-cleavage is 0.256.
As to GGCCGGCAUGGUCCCAGCCUCCUCGCUGGCGCAGGCUAGGCAACAUUCCGAGGGGACCGUCCCCUCGGUAAUGGCGAAUGGGACCCA, the self-cleavage is 0.0386.
For the variant GGCCGGCAUGGUCCCAGCCUCCUCGCUGGCGCCGGCUGGGCAACAUUCCGAGGGGACCGUCCCGUCGGUAAUGGCGAAUGGGGCCCA, the self-cleavage stood at 0.708.
Turning to GGCCGGCAUGGUCCCAGCCUCCUCGCUGGCGCCGGCUGGGCAACAUUCCGAGGGGAGCGUCCCCUCGGUAAUGGCGAAUAGGACCCA, the self-cleavage turned out to be 0.208.
As for GGCCGGCAUGCUCCCAGCCUCCUCGCUGGCGCGGGCUGGGCAACAUUCCGAGGGGACCGUCCCCUCGGUAAUGGCGAAUGGGACCCA, the self-cleavage came to 0.0396.
Consider GGCCGGCAUGGUCCCAGCCUCCUCGCUGGCGCCGGCUGGGCAAUAUUCCGAGGGGACCGUCCCCCCGGUAAUGGCGAAUGGGACCCA, for which the self-cleavage was determined as 0.61.
With GGCCGGCAUGGUCCCAGCCUCCUCGCUGGCGCCGGCUGGGCAACAUUCCUAGGGGACCGUCCCCUCGGUAAGGGCGAAUGGGACCCA, the self-cleavage was found to be 0.415.
Under GGCCGGCAUGGUCCCAGCCUCCUCGCUUGCGCCGGCUGGGCAACAUUCCGAGGGGGCCGUCCCCUCGGUAAUGGCGAAUGGGACCCA stands 0; under GGCCGGCAUGGUCCCAGCCUCCUCGCUGGCGCCGGCUGGGCAACAUUCCGAGGGGACCGUCCCCUCGGUAGUGGCGAAUGGGACCCA, 0.957; under GGCCGGCAUGGUCCCAGCCUCCUCGCUGGCGCCGGCUGGGCAACAUUCCGAGGGGUCCGUCCCCUCGGUAAUGGCGAAAGGGACCCA, 0.569.
Turning to GGCCGGCAUGGUCCGAGCCUCCUCGCUGGCGCCGGCUGGGCAACAUUCCGAGGGGACCGUCCCCUCGGUAAUGGCGAAUAGGACCCA, the self-cleavage came to 0.635.
Turning to GGCCGGCAUGGUCCCAGCCUCCUCGCUGGCGCCGGUUGGGCAACAUUCCGAGGGGACCGUCCCCUCGGUAAUGGGGAAUGGGACCCA, the self-cleavage was determined as 0.0959.
For the variant GGCCGCCAUGGUCCCAGCCUCCUCGCUGGCGCCUGCUGGGCAACAUUCCGAGGGGACCGUCCCCUCGGUAAUGGCGAAUGGGACCCA, the self-cleavage is 0.
GACCGGCAUGGUCCCAGCCUCCUCGCUGGCGCCGGCUGGGCAACAUUCCGAGGGGACGGUCCCCUCGGUAAUGGCGAAUGGGACCCA: the self-cleavage amounted to 0.151.
GGCCGGCAUGGUCCCAGGCUCCUCGCUGGCGCCGGCUGGGCAACAUUCCGAGGGGUCCGUCCCCUCGGUAAUGGCGAAUGGGACCCA: the self-cleavage came to 0.138.
GGCCGCCAUGGUCCCAGCCUCCUCGCUGGCGCCGGCUGGGUAACAUUCCGAGGGGACCGUCCCCUCGGUAAUGGCGAAUGGGACCCA: the self-cleavage worked out at 0.
With GGCCGGCAUGGUCCCAGCCUCUUCGCUGGCGCCGGUUGGGCAACAUUCCGAGGGGACCGUCCCCUCGGUAAUGGCGAAUGGGACCCA, the self-cleavage is 0.254.
Then GGCCGGCAUGGUCCCAGGCGCCUCGCUGGCGCCGGCUGGGCAACAUUCCGAGGGGACCGUCCCCUCGGUAAUGGCGAAUGGGACCCA, with 0.185; and CGCCGGCAUGGUCCCAGCCUCCUCGCUGGCGCCGGCUGGGCAACAUUCCGAGGGGACCGUCCCAUCGGUAAUGGCGAAUGGGACCCA, with 0.231.
Consider GGCCGGCAUGGUCCCAGCCUCCUCGCUAGCGCCGGCUGGGCAACAUUCCGAGGGGACCGUCCCCUCGGUAAUGGCGAAUUGGACCCA, for which the self-cleavage was found to be 0.0989.
Regarding GGCCGGCAUGGUCCCAGCCUCCUCGCUGGCGCCGGCUGGGCAAUAUUGCGAGGGGACCGUCCCCUCGGUAAUGGCGAAUGGGACCCA, the self-cleavage was 0.567.
GGCCGGCAUGGUCCCAGCCUCCUCGUUGGCGCCGGCUGGGCAACAUUCCGAGGUGACCGUCCCCUCGGUAAUGGCGAAUGGGACCCA: the self-cleavage was found to be 1.07.
Then GGCCGGCAUGGUCCCAGCCUCCUCGCUCGCGCCGGCUGGGCAACCUUCCGAGGGGACCGUCCCCUCGGUAAUGGCGAAUGGGACCCA, with 0.0594.
As to GGCCGGCAUGGUCCCAGCCUCCUCGCUGGCGCCGGCUGGUCAACAUUCCGAGGGGAACGUCCCCUCGGUAAUGGCGAAUGGGACCCA, the self-cleavage worked out at 0.719.
On to GGCCGGCAUGGGCCCAGCCUCCUCGCUGGCGCCGGCUGGGCAACAUUCCGAGGGGACCGUCCCCUCGGUAAUGGCGAGUGGGACCCA, for which the self-cleavage came out at 0.612.
Then GGCCGGCAUGGUCCCAGCCUCCUCGCUGGCGCCGGCUGGGCAACAUUCCGACGGGACCGUCCCCUCGGUAAUGGCGAAAGGGACCCA, with 0.906; and GGCCGGCAUGGACCCAGCCUCCUCGCUGGCGCCGGCUGGGCAACAUUCCGAGGGGACCGUCCCCUCGGUAAUGGCGAACGGGACCCA, with 0.166; and GGCCGGCAUGGUCCCAGCCUCGUCGCUGGCGCCGGCUGGGCAACAUUCCGAGGGGACCGUCCCCUCGGUAAUGGCGAAUUGGACCCA, with 0.142.
GGCCGGCAUGGUCCCAGCCUCCUCGCUGGCGCCGGCUGGGCAACAUUCCGAGGGGACCGUCCCAUCGGUAAUGGCGAAUAGGACCCA: the self-cleavage turned out to be 0.611.
Under GGCCGGCAUGGUCCCAGCCUCCUCGCUGGCGCCGGCUGGGCAACAUUCCGAGGGGACCGUCCCCUCGGUAAUGCCUAAUGGGACCCA stands 0.175.
